{"source": "patent US10323078B2", "about": "“Isolated peptides and fragments thereof from fibrinogen for use as drugs, particularly in skin inflammatory diseases” (Universite Paris Descartes, priority 2015, dated 2019)", "assay_type_in_all_cases": "cell-based, human", "key": {"HDF cells [1]": {"system": "HDF cells", "assay": "O2°− production by P. acnes-stimulated HDF", "conditions": "0.87 to 7 μM", "protocol": "(§1) For experiences of stimulation with P. acnes, cells were incubated with the P. acnes suspension adjusted at the appropriate concentration, pre-treated for 1 h at 37° C. or not with fibrinogen recombinant peptides Fg1 and Fg2 at the concentrations 0.87, 1.75, 3.5 or 7 μM for the desired period of time at 37° C. in 5% CO2.\n(§2) All cells lines (5·10^4 to 10^5 cells/well) were seeded in 96-well plates (Corning Costar, Brumath, France) and treated as previously described. After stimulation, cells were washed three times in PBS and incubated with 100 μl per wells of 5 μM DHE (for determination of O2^●−) or 5 μM H2-DCFDA (for determination of H2O2) for 30 min as described previously and fluorescence intensity was recorded every hour over a period of 5 h. Fluorescence excitation/emission maxima were for DHE: 480/610 nm and for H2-DCFDA: 507/525 nm. At the end of the experiment, the number of adherent cells was evaluated by the crystal violet assay as described below. O2^●−, and H2O2 were assayed by spectrofluorimetry on a Fusion spectrofluorimeter (PackardBell, Paris, France). Levels of ROS were calculated in each sample as follows: reactive oxygen species rate (arbitrary units/min/10^6 cells)=(fluorescence intensity [arbitrary units] at T5h—fluorescence intensity [arbitrary units] at To/300 minutes/number of adherent cells as measured by the crystal violet assay, and were expressed as arbitrary unit (A.U.).\n(§3) To assess the efficacy of Fg1 recombinant peptide, the production of O2^∘− and H2O2 by HaCaT cells NHDK, THP-1, MRC5 and HDF stimulated by pretreated P. acnes strains 6919, RON and PIE was measured. The amount of ROS produced was compared to that produced by the stimulated cells with untreated bacteria. Production baseline was obtained by measuring ROS on unstimulated cells. The production of IL-1ß, IL-8, IL-12 and TNF-α was also measured in all conditions cited above. The measurement of the production of ROS is performed by spectrofluorimetry in the presence of specific fluorochromes directly on the monolayer cell. Measurement of cytokine production was performed in parallel on the cell culture supernatant.\n(§4) Two sets of experiments were implemented: 1) The cells were stimulated (18 h at 37° C.) by P. acnes strains previously pretreated with Fg1 and Fg2 peptides at the final concentrations ranging from 0.87 to 7 μM for 1 h at 37° C.; and 2) The cells were pretreated first with Fg1 and Fg2 peptides at the final concentrations ranging from 0.87 to 7 μM for 24 h at 37° C. and stimulated (18 h at 37° C.) by P. acnes strains."}, "HDF cells [2]": {"system": "HDF cells", "assay": "H2O2 production by P. acnes-stimulated HDF", "conditions": "0.87 to 7 μM", "protocol": "as §1, §2, §3, §4\nTo assess the efficacy of the small Fg1-related peptide, the production of H2O2 by several cell lines (HaCaT, NHDK, THP-1, MRC5 and HDF) stimulated by three P. acnes strains 6919, RON and PIE was measured, in presence or not with the small peptides. The amount of H2O2 produced is compared to that produced by the stimulated cells with untreated bacteria. Production baseline is obtained by measuring H2O2 on unstimulated cells. The measurement of the production of H2O2 is performed by spectrofluorimetry in the presence of specific fluorochromes directly on the monolayer cell.\nTwo sets of experiments have been implemented: • I) The cells are stimulated (18 h at 37° C.) by P. acnes strains previously pretreated with Fg1.1, Fg1.2, Fg1.3, Fg1.4, and Fg1.5 small peptides at the final concentrations ranging from 2.5 to 20 μM for 1 h at 37° C.; • II) The cells are pretreated first with the five small peptides at the final concentrations ranging from 2.5 to 20 μM for 24 h at 37° C. and stimulated (18 h at 37° C.) by P. acnes strains."}, "ThP1 cells": {"system": "ThP1 cells", "assay": "IL-12 production by P. acnes-stimulated ThP1 (ELISA)", "conditions": "P. acnes 6919, set I, bacteria first pretreated, 0.87 to 7 μM", "protocol": "as §1\n(§5) Human IL-1ß, IL-8, IL-12, hBD-2, and TNF-α protein concentration was measured in the supernatants of stimulated cells using various ELISA Set kits (Ready-Set-Go kit from eBioscience for acne experiments, and for psoriasis experiments the Duo set IL-8 kit from R&D Systems and the BD-2 Human Development (hBD-2) from Peprotech) according to the manufacturer's instructions. We used serial dilutions of recombinant human IL-1ß, IL-8, IL-12 and TNF-α for standard curve. The optical density was determined at 450 nm at a wavelength correction of 540 nm.\nas §3, with “The measurement of the production of ROS is performed by spectrofluorimetry in the presence of specific fluorochromes directly on the monolayer cell. Measurement of cytokine production was performed in parallel on the cell culture supernatant.” left out"}, "[3]": {"system": "keratinocytes and fibroblasts", "assay": "IL-8 production by cells stimulated with P. acnes, overall statement", "conditions": "the 3 bacterial tested strains", "protocol": "as §1, §5\nas §3, with “The measurement of the production of ROS is performed by spectrofluorimetry in the presence of specific fluorochromes directly on the monolayer cell. Measurement of cytokine production was performed in parallel on the cell culture supernatant.” left out"}, "[4]": {"system": "monocytes and fibroblasts", "assay": "TNF-α production by cells stimulated with P. acnes, overall statement", "conditions": "the 3 bacterial tested strains", "protocol": "as §1, §5\nas §3, with “The measurement of the production of ROS is performed by spectrofluorimetry in the presence of specific fluorochromes directly on the monolayer cell. Measurement of cytokine production was performed in parallel on the cell culture supernatant.” left out"}, "MRC5 cells": {"system": "MRC5 cells", "assay": "O2°− production by P. acnes-stimulated MRC5", "conditions": "bacteria first pretreated, 0.87 to 7 μM", "protocol": "as §1, §2\nas §3, with “Measurement of cytokine production was performed in parallel on the cell culture supernatant.” left out"}, "[5]": {"conditions": "P. acnes 6919, set I, bacteria first pretreated"}, "[6]": {"conditions": "P. acnes 6919, set II, cells first pretreated"}, "[7]": {"conditions": "P. acnes PIE, set I, bacteria first pretreated"}, "[8]": {"conditions": "P. acnes PIE, set II, cells first pretreated"}, "[9]": {"conditions": "P. acnes RON, set I, bacteria first pretreated"}, "[10]": {"conditions": "P. acnes RON, set II, cells first pretreated"}}}
{"molecule": "MKRMVSWSFHKLKTMKHLLLLLLCVFLVKSQGVNDNEEGFFSARGHRPLDKKREEAPSLRPAPPPISGGGYRARPAKAAATQKKVERKAPDAGGCLHADPDLGVLC (protein, GST fusion; fragment Fg1, fragment of Bß chain of human fibrinogen having 106 amino acids; recombinant GST-fused peptide expressed in E. coli) MKRMVSWSFHKLKTMKHLLLLLLCVFLVKSQGVNDNEEGFFSARGHRPLDKKREEAPSLRPAPPPISGGGRARPAKAAATQKKVERKAPDAGGCLHADPDLGVLCMKRMVSWSFHKLKTMKHLLLLLLCVFLVKSQGVNDNEEGFFSARGHRPLDKKREEAPSLRPAPPPISGGGYRARPAKAAATQKKVERKAPDAGGCLHADPDLGVLC", "values": [{"measurement": "Inhibition of Superoxide anion (O2°−) production", "setting": "HDF cells [1]; [5]", "result": "pos"}, {"measurement": "Inhibition of Superoxide anion (O2°−) production", "setting": "HDF cells [1]; [6]", "result": "pos"}, {"measurement": "Inhibition of Superoxide anion (O2°−) production", "setting": "HDF cells [1]; [7]", "result": "pos"}, {"measurement": "Inhibition of Superoxide anion (O2°−) production", "setting": "HDF cells [1]; [8]", "result": "pos"}, {"measurement": "Inhibition of Superoxide anion (O2°−) production", "setting": "HDF cells [1]; [9]", "result": "pos"}, {"measurement": "Inhibition of Superoxide anion (O2°−) production", "setting": "HDF cells [1]; [10]", "result": "pos"}, {"measurement": "Inhibition of Hydrogen peroxide (H2O2) production", "setting": "HDF cells [2]; [5]", "result": "pos"}, {"measurement": "Inhibition of Hydrogen peroxide (H2O2) production", "setting": "HDF cells [2]; [6]", "result": "pos"}, {"measurement": "Inhibition of Hydrogen peroxide (H2O2) production", "setting": "HDF cells [2]; [7]", "result": "pos"}, {"measurement": "Inhibition of Hydrogen peroxide (H2O2) production", "setting": "HDF cells [2]; [8]", "result": "pos"}, {"measurement": "Inhibition of Hydrogen peroxide (H2O2) production", "setting": "HDF cells [2]; [9]", "result": "pos"}, {"measurement": "Inhibition of Hydrogen peroxide (H2O2) production", "setting": "HDF cells [2]; [10]", "result": "pos"}, {"measurement": "Inhibition of Interleukine 12 (IL-12) production", "setting": "ThP1 cells", "result": "pos"}, {"measurement": "Decrease of the production of IL-8", "setting": "[3]", "result": "dose-response effect on the decrease of the production of IL-8"}, {"measurement": "Decrease of the production of TNF-α", "setting": "[4]", "result": "dose-response effect on the decrease of the production of TNF-α"}, {"measurement": "Inhibition of Superoxide anion (O2°−) production", "setting": "MRC5 cells; P. acnes 6919, set I", "result": "pos"}, {"measurement": "Inhibition of Superoxide anion (O2°−) production", "setting": "MRC5 cells; P. acnes PIE, set I", "result": "pos"}, {"measurement": "Inhibition of Superoxide anion (O2°−) production", "setting": "MRC5 cells; P. acnes RON, set I", "result": "pos"}]}
